Results published in patent US20210324074A1 (US Dept. of Health and Human Services, published 2021).
One block for each binder: values may come before it.

Legend:
CD22 = target: T1, CD22 (UniProt P20273 20-687, limits assumed); assay: not stated (overview statement); overview statement, assay not stated
T1 construct: also called B cell antigen CD22

[1] = target: T2, CD22 ECD-Fc fusion protein (UniProt P20273 20-687, limits assumed); assay: SPR, BIAcore X100; CD22 ECD-Fc amine-coupled to the chip, scFv as analyte (0.32-200 nM per paragraph 213), 1:1 fit; legend paragraph 27 says this kd is below what the instrument can measure (1.0E-5 1/s)
T2 construct: extracellular domain; also called CD22-Fc; not shown: Fc part
Description: (§1) FIGS. 13A-13F: (FIG. 13A) BIAcore analysis was used to evaluate association and dissociation curves of various scFvs. […] (FIGS. 13C-13F) Mice were injected with CD22^lo or Nalm6 leukemia on Day 0. […] Bone marrow cells were stained for flow cytometry and analyzed on Fortessa flow machine. Statistics were calculated using unpaired t-test (** p<0.0021).
(§2) Purified CD22 ECD-Fc fusion protein was diluted in 10 mM acetic acid buffer, pH 5.0, immobilized on a CMS biosensor chip for 1400 RU using an amine coupling kit. The running buffer was HBS-EP (10 mM HEPES, pH 7.4, 150 mM NaCl, 3 mM EDTA, 0.05% surfactant P20). The scFvs diluted in running buffer were allowed to flow through the cells at concentrations 0.32, 1.6, 8, 40 and 200 nM. After a 10-minute of dissociation, the chip was regenerated with 10 mM acetic acid, pH 4.0, 0.5 M NaCl. The data were fitted with 1:1 binding model and the dissociation rate constant was estimated with the BIAevaluation software.

[2] = target: T2, CD22 ECD-Fc fusion protein; assay: SPR, BIAcore X100; CD22 ECD-Fc amine-coupled to the chip, scFv as analyte (0.32-200 nM per paragraph 213), 1:1 fit; calculated from a kd that legend paragraph 27 says is below the instrument's limit
Description: as §1, §2

[3] = target: T2, CD22 ECD-Fc fusion protein; assay: SPR, BIAcore X100, CD22 ECD-Fc immobilized, scFv in flow. The association rate appears only as the divisor in the KD calculation, and its unit is not printed.
Description: as §1, §2

[4] = target: T2, CD22 ECD-Fc fusion protein; assay: SPR, BIAcore X100, CD22 ECD-Fc immobilized, scFv in flow, 1:1 model. The fitted value is below the instrument's limit.; fitted kd, below the instrument's limit
Description: as §1, §2

[5] = target: T2, CD22 ECD-Fc fusion protein; assay: SPR, BIAcore X100, CD22 ECD-Fc immobilized, scFv in flow
Description: as §1, §2

[6] = target: T2, CD22 ECD-Fc fusion protein; assay: SPR, BIAcore X100; CD22 ECD-Fc amine-coupled to the chip, scFv as analyte (0.32-200 nM per paragraph 213), 1:1 fit
Description: as §1, §2

Kd (CD22): < 0.05 nM
B1: affinity matured human monoclonal antibody m971-L7 (antibody, V domains shown)
VH: QVQLQQSGPGMVKPSQTLSLTCAISGDSVSSNSVAWNWIRQSPSRGLEWLGRTYYRSTWYNDYAVSMKSRITINPDTNKNQFSLQLNSVTPEDTAVYYCAREVTGDLEDAFDIWGQGTMVTVSS
VL: DIQMIQSPSSLSASVGDRVTITCRASQTIWSYLNWYRQRPGEAPNLLIYAASSLQSGVPSRFSGRGSGTDFTLTISSLQAEDFATYYCQQSYSIPQTFGQGTKLEIK
notes: Named as 'antibody' in the overview

koff [1]: 1.16e-06 s⁻¹ | Kd [2]: 2.06 pM | kon [3]: 560000 M⁻¹ s⁻¹ | koff [4]: < 1e-05 s⁻¹ | Kd [5]: < 0.018 nM | fold higher affinity than original scFv m971 [5]: > 1000 fold | kon [6]: 563000 M⁻¹ s⁻¹
B2: m971-L7 scFv (scFv)
scFv: QVQLQQSGPGMVKPSQTLSLTCAISGDSVSSNSVAWNWIRQSPSRGLEWLGRTYYRSTWYNDYAVSMKSRITINPDTNKNQFSLQLNSVTPEDTAVYYCAREVTGDLEDAFDIWGQGTMVTVSSGGGGSGGGGSGGGGSDIQMIQSPSSLSASVGDRVTITCRASQTIWSYLNWYRQRPGEAPNLLIYAASSLQSGVPSRFSGRGSGTDFTLTISSLQAEDFATYYCQQSYSIPQTFGQGTKLEIK
notes: Soluble scFv run over immobilized CD22 ECD-Fc on a BIAcore X100; also called matured variant L7
